Experimental data from paper PMC8913689, “Atomic force microscopy-single-molecule force spectroscopy unveils GPCR cell surface architecture” (Communications Biology, 2022).

Target: the molecule itself
Test: AFM single-molecule force spectroscopy (AFM-SMFS); living WTT-CHO cells transfected with 1 µg of HA-GPCR vector, basal state, 37 °C; anti-HA antibody on the AFM tip pulls the HA-receptor out of the membrane; unfolding distances fitted by a Gaussian mixture (BIC) and each population assigned to an oligomeric state by the receptor's theoretical length

B1: HA-angiotensin II subtype 1a receptor (receptor, UniProt P25095 1-359, looked up)
chain: MALNSSAEDGIKRIQDDCPKAGRHSYIFVMIPTLYSIIFVVGIFGNSLVVIVIYFYMKLKTVASVFLLNLALADLCFLLTLPLWAVYTAMEYRWPFGNHLCKIASASVSFNLYASVFLLTCLSIDRYLAIVHPMKSRLRRTMLVAKVTCIIIWLMAGLASLPAVIHRNVYFIENTNITVCAFHYESRNSTLPIGLGLTKNILGFLFPFLIILTSYTLIWKALKKAYEIQKNKPRNDDIFRIIMAIVLFFFFSWVPHQIFTFLDVLIQLGVIHDCKISDIVDTAMPITICIAYFNNCLNPLFYGFLGKKFKKYFLQLLKYIPPKAKSHSSLSTKMSTLSYRPSDNMSSSAKKPASCFEVE
notes: angiotensin II subtype 1a receptor, family A GPCR; theoretical contour length of the HA-tagged receptor 147 nm at 0.4 nm per amino acid; The subtype name 1a points to a rodent receptor (rat P25095 or mouse P29754, both 359 residues); 147 nm (about 368 residues) fits 359 residues plus a 9-residue HA tag; also called HA-AT1a-R; AT1a-R; source: WTT-CHO cells, transiently transfected (1 µg vector); …
In the case of B1, the “stoichiometry N” value is reported as 2.
